Consider one molecule from patent publication US7718626B2, “ErbB3 binding protein compositions and methods of use” (University of Maryland, Baltimore, priority 2005, dated 2010).

The experiment relates to LNCaP xenografts. Put plainly: LNCaP xenograft tumorigenicity in SCID mice. The class given is in vivo. The protocol: In Vivo Studies in SCID Mice: Male SCID mice, 4-6 weeks of age, were purchased from the National Cancer Institute (Frederick, Md.). Animals were housed in a pathogen-free environment under controlled conditions of light and humidity and received food and water ad libitum. LNCaP cells were grown in complete medium and 800 μg/ml of G418 until 80% confluent. Cells were scraped into phosphate-buffered saline (PBS), collected by centrifugation, and suspended in Matrigel (10 mg/ml) (Collaborative Research, Waltham, Mass.) at 1×10^7 cells/ml. Each mouse received s.c. injections at one site on each flank with 100 μl of cell suspension. Tumors were measured three times a week with calipers, and tumor volumes were calculated by the formula 0.5236×r1^2×r2 (r1<r2). The animal protocols were approved by the Institutional Animal Care and Use Committee at the University of Maryland.
After sacrifice, tumors were excised and fixed in 10% buffered neutral formalin. Sections of formalin-fixed, paraffin-embedded tissues were cut to 5 μm. Slides were stained with an Ebp1 antibody (Upstate) diluted 1:50 using the standard avidin-biotin method (Vector Labs, Burlinghame, Calif.). Peroxidase activity was localized by the diaminobenzidine tetrachloride peroxidase reaction with Harris hematoxylin as a counterstain.
Ebp1 expression suppresses growth of prostate cancer xenografts: The effect of ectopic expression of ebp1 on the tumorigenicity of LNCaP cells was examined. Ebp1- and vector-transfected cells were injected subcutaneously into SCID mice, and tumor growth was monitored. Tumor growth was first noted in both groups at day 20. […] At the end of the study, tumors had developed at more than 85% of the sites injected with the vector control cells, while less than 40% of sites inoculated with ebp1 transfectants developed tumors. This difference was significant at p=0.04 by Fisher's exact test, two-sided. […] Average tumor volumes observed at the end of the study were 268±70 mm^3 as compared with 1214±168 mm^3 for the vector controls (p=0.0003). In addition, the growth rate was also slower for ebp1 transfectants at all time points measured (p=0.0001). […] Thus, cells that grew to form tumors had lost overexpression of the transgene.

B1: Ebp1: ErbB3 binding protein (SEQ ID NO: 2), tested by stable ectopic expression (ebp1 transfection) in LNCaP cells (protein)
chain: MSGEDEQQEQTIAEDLVVTKYKMGGDIANRVLRSLVEASSSGVSVLSLCEKGDAMIMEETGKIFKKEKEMKKGIAFPTSISVNNCVCHFSPLKSDQDYILKEGDLVKIDLGVHVDGFIANVAHTFVVDVAQGTQVTGRKADVIKAAHLCAEAALRLVKPGNQNTQVTEAWNKVAHSFNCTPIEGMLSHQLKQHVIDGEKTIIQNPTDQQKKDHEKAEFEVHEVYAVDVLVSSGEGKAKDAGQRTTIYKRDPSKQYGLKMKTSRAFFSEVERRFDAMPFTLRAFEDEKKARMGVVECAKHELLQPFNVLYEKEGEFVAQFKFTVLLMPNGPMRITSGPFEPDLYKSEMEVQDAELKALLQSSASRKTQKKKKKKASKTAENPTSGETLEENEAGD
modifications: Homo Sapien
As for B1, the tumor growth rate result (all time points measured, vs vector controls, p=0.0001) is listed as “slower”. The “inoculation sites with tumors” value (day 20, s.c. in SCID mice (vector controls 35%)) was 10%. Besides, the “inoculation sites that developed tumors” value (end of the study (vector control more than 85%), p=0.04) is listed as “less than 40%”. The molecule also displayed an average tumor volume (end of the study (vector controls 1214±168 mm^3), p=0.0003) of 268±70 mm^3.
